Earlier results as cited in publication PMC4153603.

What was measured:
Kv1.3 (Homo sapiens) = Kv1.3 (Homo sapiens) (UniProt P22001)
Kv1.1 (Homo sapiens) = Kv1.1 (Homo sapiens) (UniProt Q09470)
UniProt Q09470, sequence (Q09470 whole entry): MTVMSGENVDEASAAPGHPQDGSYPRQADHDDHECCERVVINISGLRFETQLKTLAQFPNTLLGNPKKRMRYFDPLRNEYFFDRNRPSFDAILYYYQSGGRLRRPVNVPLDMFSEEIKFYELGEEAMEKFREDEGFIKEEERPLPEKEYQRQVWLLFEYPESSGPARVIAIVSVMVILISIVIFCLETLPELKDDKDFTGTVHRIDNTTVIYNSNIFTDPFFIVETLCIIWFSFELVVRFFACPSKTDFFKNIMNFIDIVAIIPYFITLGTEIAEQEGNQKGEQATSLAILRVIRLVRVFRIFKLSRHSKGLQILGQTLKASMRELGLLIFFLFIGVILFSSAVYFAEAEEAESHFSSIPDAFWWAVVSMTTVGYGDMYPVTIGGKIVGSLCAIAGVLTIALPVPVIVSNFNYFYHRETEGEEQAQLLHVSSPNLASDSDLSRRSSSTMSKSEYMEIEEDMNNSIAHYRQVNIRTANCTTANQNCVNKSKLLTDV

UniProt P22001, sequence (P22001 whole entry): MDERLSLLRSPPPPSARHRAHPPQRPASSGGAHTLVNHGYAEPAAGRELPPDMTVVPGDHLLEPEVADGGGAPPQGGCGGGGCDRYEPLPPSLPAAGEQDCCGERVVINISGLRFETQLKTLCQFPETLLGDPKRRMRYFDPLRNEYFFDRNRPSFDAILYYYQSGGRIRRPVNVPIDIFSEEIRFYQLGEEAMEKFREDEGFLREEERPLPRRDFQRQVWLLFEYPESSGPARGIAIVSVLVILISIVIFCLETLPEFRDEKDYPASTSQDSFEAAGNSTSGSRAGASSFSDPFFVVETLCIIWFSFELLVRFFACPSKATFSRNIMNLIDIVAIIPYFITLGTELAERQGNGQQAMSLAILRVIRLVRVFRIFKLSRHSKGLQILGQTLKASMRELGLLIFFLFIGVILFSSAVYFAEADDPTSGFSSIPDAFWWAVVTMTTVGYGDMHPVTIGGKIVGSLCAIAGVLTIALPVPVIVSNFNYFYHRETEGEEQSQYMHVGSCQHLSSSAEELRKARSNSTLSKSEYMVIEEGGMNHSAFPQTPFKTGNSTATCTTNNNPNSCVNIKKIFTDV

For ShK (from UniProt P29187), the Kd (Kv1.3 (Homo sapiens)) is given as 0.01 nM and the Kd (Kv1.1 (Homo sapiens)) is given as 0.028 nM.
